In publication PMC9002611:

Biological target: Strep-tagged HypC_(H51A) (E. coli) (UniProt P0AAM3)
Assay: pull-down; single-step Strep-tactin affinity enrichment of the Strep-tagged chaperone from extracts of anaerobically grown SHH228 cells co-producing HypD; elution fractions (10 ug protein) on SDS-PAGE, Coomassie stain, densitometry (ImageQuant TL); apparent stoichiometries

B1: HypD (untagged) (natural protein)
chain: MRFVDEYRAPEQVMQLIEHLRERASHLSYTAERPLRIMEVCGGHTHAIFKFGLDQLLPENVEFIHGPGCPVCVLPMGRIDTCVEIASHPEVIFCTFGDAMRVPGKQGSLLQAKARGADVRIVYSPMDALKLAQENPTRKVVFFGLGFETTMPTTAITLQQAKARDVQNFYFFCQHITLIPTLRSLLEQPDNGIDAFLAPGHVSMVIGTDAYNFIASDFHRPLVVAGFEPLDLLQGVVMLVQQKIAAHSKVENQYRRVVPDAGNLLAQQAIADVFCVNGDSEWRGLGVIESSGVHLTPDYQRFDAEAHFRPAPQQVCDDPRARCGEVLTGKCKPHQCPLFGNTCNPQTAFGALMVSSEGACAAWYQYRQQESEA
  apparent stoichiometry with HypD, percent lower than for the native chaperone: 85 % lower
